Reference: patent US20240218070A1 (MERUS N V, published 2024)

B1: anti-human FAP bivalent monospecific IgG comprising heavy chain variable region SEQ ID NO: 11 (antibody, V domains shown)
VH: EVQLVESGGGLVQPGGSLRLSCAASGFTFSSYAMIWVRQAPGKGLEWVSAISGSGGYTFNADSVKGRFTMSRDNSKNTLYLQMNSLRAEDTAVYYCAKRDGGYEGGAFDIWGQGTLVTVSS
VL: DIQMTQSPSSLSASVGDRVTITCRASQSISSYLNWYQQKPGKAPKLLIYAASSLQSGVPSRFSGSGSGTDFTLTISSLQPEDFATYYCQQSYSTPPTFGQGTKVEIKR
notes: IgG1 format, common light chain VK1-39/JK1
B2: anti-human FAP bivalent monospecific IgG comprising heavy chain variable region SEQ ID NO: 19 (antibody, V domains shown)
VH: EVQLVESGGGLVKPGGSLRLSCAASGFPFNYAWMSWVRQAPGKGLEWVGRIKPKTSGGATDYAAPVKDRFTISRDDSRNTLYLQMNSLKTEDTAVYYCSAREDIWNFFFDLWGQGTLVTVSS
VL: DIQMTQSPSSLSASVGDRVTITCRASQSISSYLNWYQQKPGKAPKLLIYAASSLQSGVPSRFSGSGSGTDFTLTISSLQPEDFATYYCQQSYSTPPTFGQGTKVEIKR
notes: as for B1
B3: anti-human FAP bivalent monospecific IgG comprising heavy chain variable region SEQ ID NO: 15 (antibody, V domains shown)
VH: QLQLQESGPGLVKPSETLSLTCTVSGGSISSSSYFWAWIRQPPGKGLEFIGNIYYSGSTYYNPSLKSRVTISVDTSKNQFSLKLSSVTAADTAVYYCARPSYYGSGNYYFAFWGQGTLVTVSS
VL: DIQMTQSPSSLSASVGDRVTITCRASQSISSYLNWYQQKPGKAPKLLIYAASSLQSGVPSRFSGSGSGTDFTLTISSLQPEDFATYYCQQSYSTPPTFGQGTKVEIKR
notes: as for B1
B4: anti-human FAP bivalent monospecific IgG comprising heavy chain variable region SEQ ID NO: 69 (antibody, V domains shown)
VH: EVQLVETGGGLIQPGGSLRLSCAASGFTVSSNYMSWVRQAPGKGLEWVSVIYSGGSTYYADSVKGRFTISRDNSKNTLYLQMNSLRAEDTAVYYCARGPTDAYPYLDYLWGQGTLVTVSS
VL: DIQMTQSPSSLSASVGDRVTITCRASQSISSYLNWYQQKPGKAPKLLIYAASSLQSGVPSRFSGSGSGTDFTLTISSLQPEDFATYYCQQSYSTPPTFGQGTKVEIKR
notes: IgG1 format, common light chain VK1-39/JK1; also called human/mouse cross-reactive FAP IgG

Molecular target: T1, cynomolgus FAP (cyFAP) expressed on 293FF cells (cynomolgus, UniProt Q12884 1-760 (human entry))
T1 sequence: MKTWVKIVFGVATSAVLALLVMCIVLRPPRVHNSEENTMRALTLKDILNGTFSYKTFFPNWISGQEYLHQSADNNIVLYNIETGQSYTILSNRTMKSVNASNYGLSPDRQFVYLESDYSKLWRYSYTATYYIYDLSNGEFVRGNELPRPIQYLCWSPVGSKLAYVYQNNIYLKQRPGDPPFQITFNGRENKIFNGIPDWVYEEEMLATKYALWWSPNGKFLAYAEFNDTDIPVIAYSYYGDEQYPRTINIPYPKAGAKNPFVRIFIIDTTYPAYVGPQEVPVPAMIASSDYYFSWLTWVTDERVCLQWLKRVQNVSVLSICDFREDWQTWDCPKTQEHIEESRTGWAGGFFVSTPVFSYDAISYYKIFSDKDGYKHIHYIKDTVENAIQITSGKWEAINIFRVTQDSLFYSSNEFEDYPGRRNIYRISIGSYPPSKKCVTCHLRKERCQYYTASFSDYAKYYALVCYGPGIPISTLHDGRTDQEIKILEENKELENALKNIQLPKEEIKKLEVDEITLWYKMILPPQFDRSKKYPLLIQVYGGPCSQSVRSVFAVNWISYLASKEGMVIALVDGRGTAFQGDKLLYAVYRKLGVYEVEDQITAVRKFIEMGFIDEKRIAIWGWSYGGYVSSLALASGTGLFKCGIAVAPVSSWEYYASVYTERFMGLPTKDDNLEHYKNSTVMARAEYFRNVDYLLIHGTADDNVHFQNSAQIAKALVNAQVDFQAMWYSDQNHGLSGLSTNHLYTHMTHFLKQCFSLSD
Experiment: FACS, 293FF cells stably expressing cyFAP, IgG at 2.5 ug/ml
Procedure: The binding of all test and control antibodies to the cells was tested at a single concentration of 2.5 ug/ml. Goat-anti-human IgG F(ab)2-PE (Invitrogen, H10104) was used as secondary antibody (1:100 in FACS buffer). Ab0625 was used at 10 ug/ml and its binding was detected using Ab0250 (Becton Dickinson, 550767) (1:100 in FACS buffer). The FACS buffer containing PBS (Gibco, cat. #10010-015), 0.5% BSA (Thermo Scientific, cat. #37525), and 2 mM EDTA (Invitrogen, cat. #15575-020) was kept ice cold throughout the assay.
The target cells were harvested, counted, and centrifuged for 5 min at 300 g at 4 °C. Cells were then resuspended in FACS buffer at a concentration of 1×10⁶ cells/ml and transferred (200,000 cells/well) to a U-bottom 96-well FACS plate (BD, cat. #353910). Cells were then centrifuged for 3 min at 300 g at 4° C. and supernatant was discarded. 50 μl of primary antibody solutions were added to the cells, mixed, and incubated for 30 min at 2-8° C. in the dark. Cells were washed by adding 150 μl FACS buffer and centrifuged for 3 min at 300 g at 4° C. Supernatant was discarded, and cells were washed again by adding 200 μl FACS buffer to the plate. Cells were then centrifuged for 3 min at 300 g at 4° C. and afterwards the supernatant was discarded. 50 μl of secondary antibody solutions were added to the cells, mixed, and incubated for 30 min at 2-8° C. in the dark. Cells were then washed by adding 150 μl FACS buffer to the plate and centrifuged for 3 min at 300 g at 4° ° C. Supernatant was discarded and cells were washed again by adding 200 μl FACS buffer to the plate and centrifuged for 3 min at 300 g at 4° C. Supernatant was discarded and cells were fixated by adding 100 μl/well ice-cold Fixation buffer (2% formaldehyde solution in PBS, Sigma-Aldrich, cat. #47608-250ML-F). Cells were incubated for 15 min on ice in the dark. Afterwards, 100 μl ice-cold PBS was added to the cells and cells were centrifuged for 3 at 300 g at 4° C. Supernatant was discarded and cells were resuspended in 120 μl FACS buffer.

Binder	binding result
B1	binds
B2	binds
B3	binds
B4	binds
